Measurements reported in article PMC3715429.

Target: EphrinA2 (EphA2) receptor tyrosine kinase (human (endogenous in HFF)) (UniProt P29317)
Experiment: co-IP; lysates of c-Cbl siRNA-transfected HFF cells infected with KSHV for 5 min; IP with anti-EphA2 antibody, Western blot for clathrin; compared with control siRNA cells

fold reduction of the co-IP in c-Cbl siRNA cells against control siRNA cells: 8 fold
Substance: clathrin heavy chain (from UniProt Q00610 1-1675) (natural protein)
